Reference: publication PMC11923092

Legend:
[1] = SEC; constructs with partial Aes^N fragments fused to MBP, 30 µM each; aggregate and monomer content
[2] = SEC; analytical SEC without prior concentration adjustment; cysteine-containing proteins reduced with 0.5 mM TCEP before SEC
[3] = SEC; construct with a partial Aes^N fragment fused to MBP at 150 µM; aggregate content
[4] = SEC; 1P at an isolated protein concentration of 45 µM; monomer against aggregate
[5] = SEC; Superdex 200 10/300, 4 °C, 0.75 mL/min, assay buffer; protein as isolated; soluble aggregate at the void volume against the monomer
[6] = SEC; analytical SEC at 15 °C after dilution to 10 µM and 24 h at 15 °C in 50 mM Tris, 300 mM NaCl, pH 7; aggregate/monomer ratio from peak areas

13P, MBP fusion of Aes^N aa62-120
aggregated fraction (SEC) [1]: showed a significant aggregated fraction (53%)

GFP-Npu^N-H6 (27P)
monomeric fraction (SEC) [2]: this precursor existed to only 43% as a monomer

14P, MBP fusion of Aes^N aa69-120
aggregated fraction (SEC) [3]: 9% at 30 µM and 15% at 150 µM | aggregated fraction (SEC) [1]: 9% at 30 µM and 15% at 150 µM

MBP-Ssp^N-H6 (25P)
aggregated fraction (SEC) [2]: high-molecular weight aggregate fraction (ca. 66%) | monomeric fraction (SEC) [2]: a monomeric fraction (ca. 34%)

MBP-Aes^N-H6 (1P)
monomeric fraction (SEC) [4]: at 45 µM and 135 µM only about 4% and no detectable monomeric species were present | aggregated fraction (SEC) [5]: about 71% of the protein | monomeric fraction (SEC) [5]: about 29% | monomeric fraction (SEC) [6]: 19% measured for the WT (1P)
